Publication PMC10253715

Target: CD9-EGFP-FRB (UniProt P21926)

luciferase activity in EVs released from co-transfected HEK-293 cells, rapamycin dose series for 24 h (rapamycin is the bridging compound): 3 fold
Substance: mCherry-FKBP12-luciferase
